Assay results reported in patent US10774129B2, “Complexes of types of MHC class II that bind to collagen type II peptides and their use on diagnosis and treatment” (FRAUNHOFER-GESELLSCHAFT ZUR FÖRDERUNG DER ANGEWANDTEN …, priority 2011, dated 2020).
Square brackets hold non-standard residues; d marks the D form. Ends that are not written are not given here. Cit = NC(=O)NCCC[C@H](N)C(=O)O

Key:
Experiment in all cases: in vitro binding assay to recombinant MHC class II protein
[1] = target: MHC class II of the HLA DRB1 0404 genotype (Homo sapiens, UniProt P01903+P01911, A100R/A169T/F76Y/I96L/K127E/L162R/M171V/N62H/P40V/Q125Y/R42H/S133A/S149N/S66Y/V209L/W38E); parameters: key: *0101: the listing of the allele in the column for the allele indicates binding; *0401: “0401” in the “Binds to 0401” column indicates binding of the peptide to MHC class II of the HLA DRB1 0401 genotype; *0404: the listing of the allele in the column for the allele indicates binding; *0405: the listing of the allele in the column for the allele indicates binding; *0408: the listing of the allele in the column for the allele indicates binding; *1001: the listing of the allele in the column for the allele indicates binding; “no” or no data indicates no binding to a protein of that genotype
From the text: (§1) Binding of the peptides to recombinant MHC class II protein of various alleles has been confirmed in an in vitro binding assay and the results are shown in Tables 1, 2 and 3. In table 1, 2 and 3, the listing of the allele in the column for the allele indicates binding. Thus “0401” in the “Binds to 0401” column indicates binding of the peptide to MHC class II of the HLA DRB1 0401 genotype. “no” or no data indicates no binding to a protein of that genotype. Empty boxes indicate no binding or that binding has not been determined. In the tables it is also indicated if the peptide has a citrulline residue, where “yes” indicates the presence of a citrulline residue and “no” indicates the absence of a citrulline residue.

[2] = target: MHC class II of the HLA DRB1 0101 genotype (Homo sapiens, UniProt P01903+P01911, A100R/D57E/F55L/F60I/F76Y/I96L/L162R/M171V/P40L/Q125E/R42F/V115G/Y59C); parameters: key: *0101: the listing of the allele in the column for the allele indicates binding; *0401: “0401” in the “Binds to 0401” column indicates binding of the peptide to MHC class II of the HLA DRB1 0401 genotype; *0404: the listing of the allele in the column for the allele indicates binding; *0405: the listing of the allele in the column for the allele indicates binding; *0408: the listing of the allele in the column for the allele indicates binding; *1001: the listing of the allele in the column for the allele indicates binding; “no” or no data indicates no binding to a protein of that genotype
From the text: as §1

[3] = target: MHC class II of the HLA DRB1 0401 genotype (Homo sapiens, UniProt P01903+P01911, A100K/A169T/F76Y/I96L/K127E/L162R/M171V/N62H/P40V/Q125Y/R42H/S133A/S149N/S66Y/V115G/V209L/W38E); parameters: key to Binds to 0401: *0101: the listing of the allele in the column for the allele indicates binding; *0401: “0401” in the “Binds to 0401” column indicates binding of the peptide to MHC class II of the HLA DRB1 0401 genotype; *0404: the listing of the allele in the column for the allele indicates binding; *0405: the listing of the allele in the column for the allele indicates binding; *0408: the listing of the allele in the column for the allele indicates binding; *1001: the listing of the allele in the column for the allele indicates binding; “no” or no data indicates no binding to a protein of that genotype; settings: recombinant MHC class II, HLA DRB1 0401
From the text: as §1
Thus for these peptides no binding to HLA-DR0401 was observed when citrulline was exchanged with the original amino acid arginine (Table 4). No binding of the citrullinated peptides was seen to HLA-DR 03 or 02 variants.

[4] = target: MHC class II of the HLA DRB1 0405 genotype (Homo sapiens, UniProt P01903+P01911, A100R/A169T/D86S/F76Y/I96L/K127E/L162R/M171V/N62H/P40V/Q125Y/R42H/S133A/S149N/S66Y/V115G/V209L/W38E); parameters: key: *0101: the listing of the allele in the column for the allele indicates binding; *0401: “0401” in the “Binds to 0401” column indicates binding of the peptide to MHC class II of the HLA DRB1 0401 genotype; *0404: the listing of the allele in the column for the allele indicates binding; *0405: the listing of the allele in the column for the allele indicates binding; *0408: the listing of the allele in the column for the allele indicates binding; *1001: the listing of the allele in the column for the allele indicates binding; “no” or no data indicates no binding to a protein of that genotype
From the text: as §1

Substance	Binds to 0404 [1]	Binds to 0101 [2]	Binds to 0401 [3]	Binds to 0405 [4]
type II collagen 100: human collagen type II peptide, not citrullinated (PQGARGFPGTPGLPG; listed as Homo sapiens)	*0404	–	–	–
type II collagen 137: human collagen type II peptide, not citrullinated (GEPGIAGFKGEQGPK; listed as Homo sapiens)	*0404	*0101	*0401	–
type II collagen 138: human collagen type II peptide, not citrullinated (AGFKGEQGPKGEPGP; listed as Homo sapiens)	–	*0101	*0401	–
type II collagen 166: human collagen type II peptide, not citrullinated (VMGFPGPKGANGEPG; listed as Homo sapiens)	*0404	–	–	–
type II collagen 178: human collagen type II peptide, not citrullinated (PSGFQGLPGPPGPPG; listed as Homo sapiens)	–	–	–	*0405
type II collagen 195: human collagen type II peptide, not citrullinated (PGLQGMPGERGAAGI; listed as Homo sapiens)	*0404	–	*0401	–
type II collagen 224: human collagen type II peptide, not citrullinated (GPPGATGFPGAAGRV; listed as Homo sapiens)	*0404	–	–	–
type II collagen 241: human collagen type II peptide, not citrullinated (LAGQRGIVGLPGQRG; listed as Homo sapiens)	*0404	–	no	*0405
type II collagen 257: human collagen type II peptide, not citrullinated (GDRGETGAVGAPGAP; listed as Homo sapiens)	*0404	–	–	–
type II collagen 272: human collagen type II peptide, not citrullinated (GHRGFTGLQGLPGPP; listed as Homo sapiens)	–	–	–	*0405
type II collagen 332: citrullinated human collagen type II peptide ([Cit]GPPGPQGA[Cit]GFPGT; listed as Homo sapiens)	*0404	–	*0401	*0405
vimentin 13: human vimentin peptide, not citrullinated (YATRSSAVRLRSSVP; listed as Homo sapiens)	–	*0101	no	–
vimentin 14: human vimentin peptide, not citrullinated (SAVRLRSSVPGVRLL; listed as Homo sapiens)	*0404	–	–	–
vimentin 16: human vimentin peptide, not citrullinated (GVRLLQDSVDFSLAD; listed as Homo sapiens)	–	no	*0401	–
vimentin 20: human vimentin peptide, not citrullinated (FKNTRTNEKVELQEL; listed as Homo sapiens)	–	–	*0401	–
vimentin 27: human vimentin peptide, not citrullinated (LLAELEQLKGQGKSR; listed as Homo sapiens)	no	*0101	–	–
vimentin 32: human vimentin peptide, not citrullinated (ELRRQVDQLTNDKAR; listed as Homo sapiens)	*0404	*0101	–	–

Substance	Binds to 0404 [1]	Binds to 0101 [2]	Binds to 0401 [3]	Binds to 0405 [4]
vimentin 42: human vimentin peptide, not citrullinated (FRQDVDNASLARLDL; listed as Homo sapiens)	no	*0101	*0401	–
vimentin 44: human vimentin peptide, not citrullinated (ARLDLERKVESLQEE; listed as Homo sapiens)	*0404	–	–	–
vimentin 55: human vimentin peptide, not citrullinated (DVRQQYESVAAKNLQ; listed as Homo sapiens)	–	*0101	*0401	–
vimentin 59: human vimentin peptide, not citrullinated (YKSKFADLSEAANRN; listed as Homo sapiens)	–	–	*0401	–
vimentin 71: human vimentin peptide, not citrullinated (FAVEAANYQDTIGRL; listed as Homo sapiens)	–	–	*0401	–
vimentin 79: human vimentin peptide, not citrullinated (MALDIEIATYRKLLE; listed as Homo sapiens)	*0404	*0101	no	–
vimentin 92: human vimentin peptide, not citrullinated (GQVINETSQHHDDLE; listed as Homo sapiens)	*0404	–	–	–
vimentin 93: citrullinated human vimentin peptide (MST[Cit]SVSSSSY[Cit][Cit]MF; listed as Homo sapiens)	*0404	no	*0401	–
vimentin 95: citrullinated human vimentin peptide (Y[Cit][Cit]MFGGPGTAS[Cit]PS; listed as Homo sapiens)	–	*0101	*0401	–
vimentin 98: citrullinated human vimentin peptide (SS[Cit]SYVTTST[Cit]TYSL; listed as Homo sapiens)	–	–	*0401	*0405
vimentin 99: citrullinated human vimentin peptide (VTTST[Cit]TYSLGSAL[Cit]; listed as Homo sapiens)	–	*0101	*0401	–
vimentin 132: citrullinated human vimentin peptide (F[Cit]QDVDNASLA[Cit]LDL; listed as Homo sapiens)	–	*0101	–	–
vimentin 145: citrullinated human vimentin peptide (STEY[Cit][Cit]QVQSLTCEV; listed as Homo sapiens)	–	–	*0401	–
vimentin 150: citrullinated human vimentin peptide (FAVEAANYQDTIG[Cit]L; listed as Homo sapiens)	–	–	*0401	–
vimentin 156: citrullinated human vimentin peptide (XEYQDLLNVKMALDI; citrullinated; MOD_RES (1)..(1) Citrulline; listed as Homo sapiens)	–	*0101	–	–
vimentin 159: citrullinated human vimentin peptide (XKLLEGEESXISLPL; citrullinated; MOD_RES (1)..(1) Citrulline; MOD_RES (10)..(10) Citrulline; listed as Homo sapiens)	No	–	*0401	–
